In IntAct's records for PubMed 21784248:

B1: Nucleoporin NIC96 (Chaetomium thermophilum (strain DSM 1495 / CBS 144.50 / IMI 039719)), G0S024 (parent)
chain: MSLIGNGPSVPPSSTKASLFSSPTTSANPTGGLFGSTTGGSSLFAPKTAGSTTTSTTQPTSTTGLGTSLFGTSTTANTQNTANAARPSLFTAGNSIFGTSTTQPGLGASSLTTAATSNQQAQQQQQQRQQHQQAAPTGALFDSLLARNKKQAEGETALGELPSLQLGLADLRQRLRKLGPSSDRPIEPGKAHYFLAASGVDPGAAVRDLGALGLQAKTERTAASVGPAAGPSGVSTTGFGTGLGEVDVDTYLSNLQTKTTLSMIADGLERSARDFDAFLEENVTLEWEAQRKRIYQHFGIKPRDSSVAGTTTAQPTATPSKDGQGTFGRSRRKASQPPPGERPAQRMSILGRSTMMRSVIGTPTRIGAHAPEFSDVEARKDSSGAAVASVDDRFLREKQAKLAEKIREFNDARQRGTPFYICRDLADLESKSGDRHGPHIVEAYRAVMEMVGEHPDAGEAPRERQFAKMYLDPNTQSANALAMRKQILKGATTFLEKQFWNEVNSLIAKYPQDANLGGLPDVVSKIKAYIRLRIARKTLVPDNVELQQINGEYVWAIVFYLLRAGFVTEAAQYVNSNQAHFRAIDRTFSGYINSYASSEERRLKRQMQDRCMSEYNQRIRNAPEGSIDPFRMACYKIIGRCDLSNRSLDGLQTDVNDWIWLQFNLARETDRSLELAGESYGLAELQASIREIGLKHFPKTAAEDTNGSFGMFFYLQILAGMFEQAIAYLYPFSYVDAVHFAIALTYYGLLRPVDAASAGNELLSHNTRSMPQINFGRMLGYYTRDFRAANPAAAVDYLVLICLNADEAAGGQQAQAALCHEALRELVLESREFSRLIGDIRPDGRRIRGVIEERGPLIALGQEDDFIRTITLQAASFADDNGRTTDAVLLYHLAEDYDTVVSIVSRALSEAISLEIGEDPMRLIPVKPRVTNAEGQVEEAAPGSSLSLAAIDDPVELAKAMMGMYERDHMFWQKIREPNRVACSVLLQMADIKSLVEQGRWAECLDKIRALDILPLTARGDPGTIRSYAARFPSLAQPVAINVPNLLMWTVLCCMRQRERLAGGQFAGNESTARLMMDELKQMTVDLMAYTSQLRYRLPPHLHEALARASAD

Variants of: B1
Settings: with nu192_chatd NUP192, G0S4T0
Chain of nu192_chatd NUP192, G0S4T0 (G0S4T0 whole entry): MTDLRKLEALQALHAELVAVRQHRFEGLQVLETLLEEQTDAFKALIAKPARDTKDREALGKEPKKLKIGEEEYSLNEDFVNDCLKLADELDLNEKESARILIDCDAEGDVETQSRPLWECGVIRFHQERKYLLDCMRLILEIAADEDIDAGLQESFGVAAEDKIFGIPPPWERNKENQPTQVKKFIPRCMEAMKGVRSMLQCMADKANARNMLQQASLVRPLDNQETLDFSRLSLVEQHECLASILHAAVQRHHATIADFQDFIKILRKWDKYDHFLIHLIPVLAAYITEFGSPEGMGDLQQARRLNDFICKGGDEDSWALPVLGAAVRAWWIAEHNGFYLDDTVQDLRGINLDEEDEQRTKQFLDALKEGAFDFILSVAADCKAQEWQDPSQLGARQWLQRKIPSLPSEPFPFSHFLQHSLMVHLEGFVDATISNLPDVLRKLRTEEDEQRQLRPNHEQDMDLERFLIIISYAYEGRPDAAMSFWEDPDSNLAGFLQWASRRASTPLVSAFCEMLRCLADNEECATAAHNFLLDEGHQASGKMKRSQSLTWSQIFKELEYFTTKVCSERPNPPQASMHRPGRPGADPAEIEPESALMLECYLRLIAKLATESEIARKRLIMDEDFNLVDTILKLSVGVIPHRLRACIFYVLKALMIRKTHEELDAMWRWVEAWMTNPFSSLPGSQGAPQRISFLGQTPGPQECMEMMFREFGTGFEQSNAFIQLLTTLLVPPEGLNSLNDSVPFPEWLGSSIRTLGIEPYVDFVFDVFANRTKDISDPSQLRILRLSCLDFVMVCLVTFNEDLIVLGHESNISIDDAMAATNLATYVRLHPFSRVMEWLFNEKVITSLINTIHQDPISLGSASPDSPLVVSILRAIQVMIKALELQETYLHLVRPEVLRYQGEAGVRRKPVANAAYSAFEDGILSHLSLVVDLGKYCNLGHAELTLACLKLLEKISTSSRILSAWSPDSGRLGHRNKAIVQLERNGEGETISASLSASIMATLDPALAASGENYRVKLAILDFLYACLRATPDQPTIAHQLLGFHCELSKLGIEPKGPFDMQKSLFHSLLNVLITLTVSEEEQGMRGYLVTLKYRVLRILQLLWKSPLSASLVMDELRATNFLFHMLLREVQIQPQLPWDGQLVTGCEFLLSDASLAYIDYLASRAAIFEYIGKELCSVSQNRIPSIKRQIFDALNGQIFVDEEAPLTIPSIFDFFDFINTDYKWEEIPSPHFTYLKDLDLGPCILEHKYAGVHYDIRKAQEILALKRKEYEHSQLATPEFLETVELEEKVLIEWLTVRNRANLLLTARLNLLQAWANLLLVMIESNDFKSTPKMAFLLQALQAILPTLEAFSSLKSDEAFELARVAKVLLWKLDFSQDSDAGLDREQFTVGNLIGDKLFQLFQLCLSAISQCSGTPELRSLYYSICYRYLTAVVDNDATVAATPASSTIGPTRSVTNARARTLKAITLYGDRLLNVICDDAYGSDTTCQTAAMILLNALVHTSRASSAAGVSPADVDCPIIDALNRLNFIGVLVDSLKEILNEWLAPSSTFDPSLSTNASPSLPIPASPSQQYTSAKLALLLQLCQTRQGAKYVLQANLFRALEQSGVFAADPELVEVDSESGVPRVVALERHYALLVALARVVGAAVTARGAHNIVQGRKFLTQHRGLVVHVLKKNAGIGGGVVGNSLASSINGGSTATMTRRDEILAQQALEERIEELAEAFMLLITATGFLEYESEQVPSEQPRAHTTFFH

Row | effect of a mutation on the interaction | Variant
1 | decreasing interaction | Y251A;I264A;F275A;W287A
